The values that follow come from publication PMC7327498, “Structural basis of semaphorin‐plexin cis interaction” (The EMBO Journal, 2020).

B3: PlexA1‐4‐mVenus (domain or fragment)
chain: QTLAANIWSDKTTAQNEPINLTNANAPIKNAKNLNSTITNVAAFDTKLNHLLVDTITGRVFVGGVNRLYQLSPDLELSETVKTGPQNDSVECSILDCPLNAVRSPTDNYNKVLLIDRATSRLIACGSLFQGTCTVRNLQNVSIIEHEVPDAVVANDANSSTVAFIAPGPPQHPVTNVMYVGVTYTNNSPYRSEIPAVASRSLEKTKMFQIASSAVTTGTRTFINSYARETYFVNYVYGFSSERFSYFLTTQLKHSHHSSPKEYITKLVRICQEDSNYYSYTEIPVECISDAQGGTKFNLVQAGFLGKPSSDLAQSLGISIQDDVLFAVFSKGEGNTPTNNSALCIYSLKSIRRKFMQNIKSCFNGSGMRGLDFISPSMPCVLTKLQTIGEDFCGLDVNSPLGGETPITSVPVAMFNTKLTSVAATSTSGYTVVFVGTSDGFLKKVVIESSSIANEYASFAVDLGSEINRDMQFDNQNLYIYVMSKTKVSKVKVFDCSDYKTCGDCLGARDPYCGWCSLENKCSPRSNCQDDANDPLYWVSYKTGKCTTITSVVPHQLQRTTARTLELIIDHLPQLKENLICAFTTEDKALFTNATKKRNGVNCTTPRTDMLPQIEQGKHHFTAKLSVRTRNGPDLVSTDFTFFDCSTHSSCTRCVSSEFPCDWCVEAHRCTHDTAENCRNDILVTGVSRIGPSYRSGPGFCPT

For assay [1], the target named is T1, PlexA1‐4‐mVenus (Drosophila melanogaster, UniProt Q9V491 28-730).
T1 construct: Plexin A (PlexA), Drosophila melanogaster, domains 1-4, residues 28–730; monoVenus follows PlexA1-4 and is followed by the His6 tag; source: HEK 293T, transient transfection, purified (HisTrap, SEC); not shown: mVenus, C-terminal, kept
T1 sequence (looked up): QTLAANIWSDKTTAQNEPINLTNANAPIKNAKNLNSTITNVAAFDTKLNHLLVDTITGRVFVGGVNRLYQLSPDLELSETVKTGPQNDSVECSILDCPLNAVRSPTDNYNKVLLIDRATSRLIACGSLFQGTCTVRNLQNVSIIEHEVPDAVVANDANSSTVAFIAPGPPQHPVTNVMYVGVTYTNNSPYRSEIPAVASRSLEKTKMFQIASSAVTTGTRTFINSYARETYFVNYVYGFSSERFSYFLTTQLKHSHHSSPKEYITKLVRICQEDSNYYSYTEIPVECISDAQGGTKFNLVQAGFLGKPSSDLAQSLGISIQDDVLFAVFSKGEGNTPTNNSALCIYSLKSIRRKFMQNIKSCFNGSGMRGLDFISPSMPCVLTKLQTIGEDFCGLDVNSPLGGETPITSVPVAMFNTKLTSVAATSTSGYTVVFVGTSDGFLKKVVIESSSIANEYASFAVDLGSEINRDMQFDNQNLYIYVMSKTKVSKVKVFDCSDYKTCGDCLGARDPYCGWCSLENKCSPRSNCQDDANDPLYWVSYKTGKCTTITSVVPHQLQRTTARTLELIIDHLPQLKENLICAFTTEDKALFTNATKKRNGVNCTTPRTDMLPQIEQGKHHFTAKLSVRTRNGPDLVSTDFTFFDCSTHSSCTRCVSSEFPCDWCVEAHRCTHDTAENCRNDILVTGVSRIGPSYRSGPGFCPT
In words: MST; fluorescent PlexA1‐4‐mVenus kept constant, unlabelled Sema1b_(ecto) or mutants titrated; 28°C, 15 mM HEPES pH 7.4, 150 mM NaCl, 2 mM CaCl2, 0.05% Tween‐20; 80% MST power. The note with it: both partners purified.

For assay [2], the target named is B3. In words: MST.
Another assay addresses T2, PlexA1‐4 (Drosophila melanogaster, UniProt Q9V491 28-730).
T2 construct: Plexin A (PlexA), Drosophila melanogaster, domains 1-4 (sema, PSI1, IPT1, PSI2), residues 28–730; also called PlexA domains 1-4; source: HEK 293T, transient transfection, purified (HisTrap, SEC); for crystallisation made with kifunensine, not deglycosylated
T2 sequence (looked up): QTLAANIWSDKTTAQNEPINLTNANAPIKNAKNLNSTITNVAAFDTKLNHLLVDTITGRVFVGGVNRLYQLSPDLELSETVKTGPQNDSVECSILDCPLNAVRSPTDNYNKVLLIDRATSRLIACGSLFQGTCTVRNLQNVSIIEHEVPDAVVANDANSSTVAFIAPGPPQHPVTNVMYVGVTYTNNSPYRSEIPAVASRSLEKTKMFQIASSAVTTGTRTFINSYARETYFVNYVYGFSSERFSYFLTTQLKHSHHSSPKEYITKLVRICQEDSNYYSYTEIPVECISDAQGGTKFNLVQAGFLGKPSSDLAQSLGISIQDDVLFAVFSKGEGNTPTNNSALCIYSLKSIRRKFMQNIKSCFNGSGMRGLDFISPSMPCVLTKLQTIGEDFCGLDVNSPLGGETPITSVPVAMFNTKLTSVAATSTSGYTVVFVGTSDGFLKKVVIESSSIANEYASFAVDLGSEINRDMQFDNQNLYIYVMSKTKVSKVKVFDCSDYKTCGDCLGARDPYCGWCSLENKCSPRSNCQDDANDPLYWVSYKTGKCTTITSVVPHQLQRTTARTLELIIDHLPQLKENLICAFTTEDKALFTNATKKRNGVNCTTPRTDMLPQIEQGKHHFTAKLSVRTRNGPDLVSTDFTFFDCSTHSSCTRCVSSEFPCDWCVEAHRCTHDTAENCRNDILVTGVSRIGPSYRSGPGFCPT
Description: SEC-MALS; Superdex 200 10/300, 15 mM HEPES pH 7.8, 150 mM NaCl; single proteins injected at 2.0, 1.0 and 0.5 mg/ml; equimolar mixture of Sema1b1‐2 and PlexA1‐4. Particulars: both partners purified. In general terms: Size exclusion chromatography separates by hydrodynamic size, large species first.

The target in a further assay is T3, Sema1b_(ecto)‐mutA (Drosophila melanogaster, UniProt Q7KK54 37-659, F203E | Q219R | K223E).
T3 sequence: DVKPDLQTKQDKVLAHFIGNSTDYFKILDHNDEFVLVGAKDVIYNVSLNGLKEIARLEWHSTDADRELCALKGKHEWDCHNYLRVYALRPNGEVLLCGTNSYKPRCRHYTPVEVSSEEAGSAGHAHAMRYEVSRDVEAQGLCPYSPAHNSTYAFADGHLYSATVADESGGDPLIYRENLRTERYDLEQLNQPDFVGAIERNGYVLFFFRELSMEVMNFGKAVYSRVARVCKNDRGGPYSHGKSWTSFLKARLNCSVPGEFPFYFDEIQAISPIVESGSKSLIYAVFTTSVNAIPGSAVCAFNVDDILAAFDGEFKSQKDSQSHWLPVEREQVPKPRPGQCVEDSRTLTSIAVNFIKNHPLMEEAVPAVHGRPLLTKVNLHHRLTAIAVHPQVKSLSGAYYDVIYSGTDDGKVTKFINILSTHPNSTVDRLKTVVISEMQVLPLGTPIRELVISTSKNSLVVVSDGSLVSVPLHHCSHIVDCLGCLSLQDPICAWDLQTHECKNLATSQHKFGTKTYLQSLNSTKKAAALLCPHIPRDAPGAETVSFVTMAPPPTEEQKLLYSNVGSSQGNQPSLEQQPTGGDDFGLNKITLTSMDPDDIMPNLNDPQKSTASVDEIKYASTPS
In words: MST.

The target in another assay is T4, Sema1b_(ecto)‐mutB (Drosophila melanogaster, UniProt Q7KK54 37-659, loop 350–367 was replaced with 18 alanine residues).
T4 sequence: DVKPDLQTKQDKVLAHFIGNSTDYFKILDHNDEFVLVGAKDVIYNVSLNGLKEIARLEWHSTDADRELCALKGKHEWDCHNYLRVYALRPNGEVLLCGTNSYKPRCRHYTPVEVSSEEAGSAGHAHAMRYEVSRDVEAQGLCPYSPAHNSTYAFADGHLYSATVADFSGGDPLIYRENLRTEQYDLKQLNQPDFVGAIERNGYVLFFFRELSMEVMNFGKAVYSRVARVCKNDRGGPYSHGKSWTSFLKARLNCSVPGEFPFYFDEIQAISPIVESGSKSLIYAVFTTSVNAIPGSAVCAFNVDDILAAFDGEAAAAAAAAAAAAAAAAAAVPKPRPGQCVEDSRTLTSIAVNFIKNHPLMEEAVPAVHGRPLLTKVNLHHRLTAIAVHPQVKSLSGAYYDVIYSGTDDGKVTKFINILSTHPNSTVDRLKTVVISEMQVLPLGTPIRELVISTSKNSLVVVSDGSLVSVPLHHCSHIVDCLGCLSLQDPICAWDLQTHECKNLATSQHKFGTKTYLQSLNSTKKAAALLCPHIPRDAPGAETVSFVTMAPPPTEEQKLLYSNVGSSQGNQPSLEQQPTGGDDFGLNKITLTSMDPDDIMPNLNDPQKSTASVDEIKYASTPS
In words: MST.

One may read the Kd as the equilibrium constant for the complex coming apart. For orientation: stoichiometry N means a count of units in the complex or per binding partner.

B1: Sema1b_(ecto) (domain or fragment, Drosophila melanogaster, UniProt Q7KK54 37-659, looked up)
chain: DVKPDLQTKQDKVLAHFIGNSTDYFKILDHNDEFVLVGAKDVIYNVSLNGLKEIARLEWHSTDADRELCALKGKHEWDCHNYLRVYALRPNGEVLLCGTNSYKPRCRHYTPVEVSSEEAGSAGHAHAMRYEVSRDVEAQGLCPYSPAHNSTYAFADGHLYSATVADFSGGDPLIYRENLRTEQYDLKQLNQPDFVGAIERNGYVLFFFRELSMEVMNFGKAVYSRVARVCKNDRGGPYSHGKSWTSFLKARLNCSVPGEFPFYFDEIQAISPIVESGSKSLIYAVFTTSVNAIPGSAVCAFNVDDILAAFDGEFKSQKDSQSHWLPVEREQVPKPRPGQCVEDSRTLTSIAVNFIKNHPLMEEAVPAVHGRPLLTKVNLHHRLTAIAVHPQVKSLSGAYYDVIYSGTDDGKVTKFINILSTHPNSTVDRLKTVVISEMQVLPLGTPIRELVISTSKNSLVVVSDGSLVSVPLHHCSHIVDCLGCLSLQDPICAWDLQTHECKNLATSQHKFGTKTYLQSLNSTKKAAALLCPHIPRDAPGAETVSFVTMAPPPTEEQKLLYSNVGSSQGNQPSLEQQPTGGDDFGLNKITLTSMDPDDIMPNLNDPQKSTASVDEIKYASTPS
notes: Semaphorin 1b (Sema1b), Drosophila melanogaster, ectodomain, residues 37–659; pHLsec vector; monomer in solution according to the authors' earlier work; also called Sema1b ectodomain; wild-type Sema1b_(ecto); source: HEK 293T, transient transfection, purified from conditioned medium (HisTrap, SEC)
Consider B1, for which the binding result in the assay with PlexA1‐4‐mVenus [1] is recorded as “binds”. In the assay with PlexA1‐4‐mVenus [2], this molecule gave an equilibrium dissociation constant (Kd) of 586 nM.

B2: Sema1b1‐2 (domain or fragment, Drosophila melanogaster, UniProt Q7KK54 37-602, looked up)
chain: DVKPDLQTKQDKVLAHFIGNSTDYFKILDHNDEFVLVGAKDVIYNVSLNGLKEIARLEWHSTDADRELCALKGKHEWDCHNYLRVYALRPNGEVLLCGTNSYKPRCRHYTPVEVSSEEAGSAGHAHAMRYEVSRDVEAQGLCPYSPAHNSTYAFADGHLYSATVADFSGGDPLIYRENLRTEQYDLKQLNQPDFVGAIERNGYVLFFFRELSMEVMNFGKAVYSRVARVCKNDRGGPYSHGKSWTSFLKARLNCSVPGEFPFYFDEIQAISPIVESGSKSLIYAVFTTSVNAIPGSAVCAFNVDDILAAFDGEFKSQKDSQSHWLPVEREQVPKPRPGQCVEDSRTLTSIAVNFIKNHPLMEEAVPAVHGRPLLTKVNLHHRLTAIAVHPQVKSLSGAYYDVIYSGTDDGKVTKFINILSTHPNSTVDRLKTVVISEMQVLPLGTPIRELVISTSKNSLVVVSDGSLVSVPLHHCSHIVDCLGCLSLQDPICAWDLQTHECKNLATSQHKFGTKTYLQSLNSTKKAAALLCPHIPRDAPGAETVSFVTMAPPPTEEQKLLYSNVGS
notes: Semaphorin 1b (Sema1b), Drosophila melanogaster, domains 1-2 (sema, PSI), residues 37–602; also called Sema1b sema-PSI fragment; source: HEK 293T, transient transfection, purified (HisTrap, SEC); for crystallisation made with kifunensine and treated with endoglycosidase F1
For B2, the “stoichiometry N” value with PlexA1‐4 came to 1.
As to B3, the values for the Kd with Sema1b_(ecto)‐mutA and with Sema1b_(ecto)‐mutB were 1240 nM and 74 nM, respectively.
